Source: publication PMC8746653, “Biochemical and Structural Analysis of a Glucose-Tolerant β-Glucosidase from the Hemicellulose-Degrading Thermoanaerobacterium saccharolyticum” (Molecules, 2022)

Legend:
TsaBgl [1] = molecular target: T1, TsaBgl (Thermoanaerobacterium saccharolyticum, UniProt I3VXG7); assay: pNPG hydrolysis, pNP release at […] nm, inhibitor titration; type: biochemical; details: read-out: concentration that reduced the enzyme activity by half
T1 construct: gene Tsac_2208

TsaBgl [2] = molecular target: T1, TsaBgl; assay: X-ray crystal structure, […] Å; type: binding; details: Tris from buffer bound at active site, contacts Glu163 and Glu351; crystallised in 0.1 M Tris-HCl pH 7.0
purified protein = substrate: O=[N+]([O-])c1ccc(O[C@@H]2O[C@H](CO)[C@@H](O)[C@H](O)[C@H]2O)cc1; assay: purified protein; details: 100 mM sodium phosphate pH 6.0, 55 °C, 0-10 mM pNPG

IC50 (TsaBgl [1])	Molecule	X-ray crystal structure, 1.70 Å (TsaBgl [2])	Km (purified protein)	kcat (purified protein)	kcat/Km (purified protein)
~10 mM	NC(CO)(CO)CO [Tris]	one Tris molecule was bound to the active site			
	TsaBgl (Thermoanaerobacterium saccharolyticum JW/SL-YS485) (protein) MLDFSKDFLFGVATASYQVEGAYNEDGRTMSIWDTFSRQDGKVYKSHNGDVACDHYHLYKDDVKMMKDLGIEAYRFSIAWPRIFPAKGQYNPKGMDFYKRLTDELLKNDIKPFATIYHWDLPQWADDLGGWLNREIVEWYGEYAEKLFSELGGYIKNWITLNEPWCSSFLSYFIGEHAPGHKDLGEALLVSHNLLLSHGKAVEIFRGLNLDDSKIGITLNLNEVFPASDSDDDKVAAQIADGFQNRWFLDPLFKGKYPQDMVEYFGKYAKVDFINDEDLKLISQKLDFLGVNYYTRAVVQKGNDGLLDAVQIDPGNERTEMGWEIYPESLYNILMRLKREYTYDMPLYITENGAAFNDVVEDDGRVHDEKRVEFLKQHFKEAKRFLNDGGNLKGYFVWSLMDNFEWAHGYSKRFGIVYVDYETEKRILKDSALWYKDLISTRTI		360 ± 20 µM	18.6 s⁻¹	51000 M⁻¹ s⁻¹
